One assay deals with T1, hiR1-FL-WT-T7 (human, UniProt Q96CC6 1-855).
T1 construct: on MEF-DKO cells
T1 sequence: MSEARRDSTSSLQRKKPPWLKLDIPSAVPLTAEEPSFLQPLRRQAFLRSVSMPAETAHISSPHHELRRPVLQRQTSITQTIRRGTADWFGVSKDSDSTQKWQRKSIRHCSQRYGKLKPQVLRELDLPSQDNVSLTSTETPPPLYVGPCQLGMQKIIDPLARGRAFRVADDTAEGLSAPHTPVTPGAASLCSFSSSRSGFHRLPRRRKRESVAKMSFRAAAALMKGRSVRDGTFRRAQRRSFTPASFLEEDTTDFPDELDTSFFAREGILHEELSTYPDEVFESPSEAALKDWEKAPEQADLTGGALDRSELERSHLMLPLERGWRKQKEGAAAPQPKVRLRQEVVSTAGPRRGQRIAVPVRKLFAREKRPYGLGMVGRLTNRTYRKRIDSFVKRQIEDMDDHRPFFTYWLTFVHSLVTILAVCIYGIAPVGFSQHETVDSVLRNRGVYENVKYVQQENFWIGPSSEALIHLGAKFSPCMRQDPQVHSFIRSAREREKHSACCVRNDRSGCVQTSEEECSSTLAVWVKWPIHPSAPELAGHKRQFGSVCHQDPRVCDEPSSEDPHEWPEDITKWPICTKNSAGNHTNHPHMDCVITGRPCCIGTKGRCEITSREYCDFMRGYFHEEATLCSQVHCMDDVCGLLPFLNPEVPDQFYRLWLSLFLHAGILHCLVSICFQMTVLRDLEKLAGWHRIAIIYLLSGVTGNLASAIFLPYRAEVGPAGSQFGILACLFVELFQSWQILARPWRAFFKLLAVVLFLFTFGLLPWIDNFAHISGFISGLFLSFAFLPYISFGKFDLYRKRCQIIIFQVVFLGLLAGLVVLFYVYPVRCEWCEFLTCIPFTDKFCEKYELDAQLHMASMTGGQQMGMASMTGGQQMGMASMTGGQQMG
The assay can be described thus: FACS, MEF-DKO cells, 3 µg/ml.

Another assay addresses T2, hiR2-FL-S537E-T7 (human, UniProt Q6PJF5 1-856).
T2 sequence: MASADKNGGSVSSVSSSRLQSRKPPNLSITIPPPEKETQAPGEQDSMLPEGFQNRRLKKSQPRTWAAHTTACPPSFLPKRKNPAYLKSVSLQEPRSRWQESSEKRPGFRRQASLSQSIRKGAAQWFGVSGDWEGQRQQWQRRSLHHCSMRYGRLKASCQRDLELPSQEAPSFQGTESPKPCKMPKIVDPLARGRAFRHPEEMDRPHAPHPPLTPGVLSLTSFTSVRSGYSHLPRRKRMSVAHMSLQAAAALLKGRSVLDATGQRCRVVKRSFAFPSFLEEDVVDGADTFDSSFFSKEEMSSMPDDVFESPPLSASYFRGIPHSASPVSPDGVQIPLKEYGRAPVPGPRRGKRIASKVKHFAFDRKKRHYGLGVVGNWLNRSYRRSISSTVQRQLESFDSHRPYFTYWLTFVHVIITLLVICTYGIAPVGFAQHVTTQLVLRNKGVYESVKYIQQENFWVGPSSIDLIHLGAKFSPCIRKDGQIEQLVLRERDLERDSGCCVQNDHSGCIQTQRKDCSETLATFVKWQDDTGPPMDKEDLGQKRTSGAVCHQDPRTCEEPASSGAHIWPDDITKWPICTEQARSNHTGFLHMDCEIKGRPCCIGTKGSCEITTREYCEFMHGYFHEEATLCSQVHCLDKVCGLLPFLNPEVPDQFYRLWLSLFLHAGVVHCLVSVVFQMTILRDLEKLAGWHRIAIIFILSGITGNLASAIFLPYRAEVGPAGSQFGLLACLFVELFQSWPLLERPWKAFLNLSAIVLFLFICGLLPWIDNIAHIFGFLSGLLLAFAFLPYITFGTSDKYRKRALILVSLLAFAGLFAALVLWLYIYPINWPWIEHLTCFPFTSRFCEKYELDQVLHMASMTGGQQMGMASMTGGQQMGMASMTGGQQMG
Description: FACS, MEF-DKO cells, 3 µg/ml.

Consider ten molecules from patent US20240287172A1 (SCIRHOM, published 2024).

Substitutions are numbered along the chain they refer to.

B1: antibody 48 (antibody, V domains shown)
VH: QVQLQQSGTELVRPGTSVKVSCKASGYAFTNYLIEWVKQRPGQGLEWIGVINPGSGFTKYNEKFKGKATLTADKSSSTVYMHLSSLTSEDSAVYFCARGLYRAMDYWGQGTSVTVSS
VL: DIQMTQSPASQSASLGESVTITCLASQTIATWLAWYQQKPGKSPQLLIYGATTLADGVPSRFSGGGSGTKFSFKISSLQAEDFVSYYCQQLYSTPYTFGGGTKLEIK
notes: mouse IgG, kappa light chain; also called clone #48; purified antibody 48
Consider B1, for which, in the assay with hiR1-FL-WT-T7, the “loss of binding vs wild type” value is at least 60%.

B2: antibody 50 (antibody, V domains shown)
VH: B1 VH with T9A, T16A, T30S, V79A, H82Q
VL: B1 VL with A30G, G50A, T52A, T53S, S85N, L91I
notes: mouse IgG, kappa light chain; also called clone #50; purified antibody 50
On to B2, for which the “loss of binding vs wild type” value with hiR1-FL-WT-T7 is at least 95%.

B3: antibody 16 (antibody, V domains shown)
VH: QVTLKESGPGILQPSQTLSLTCSFSGFSLSTFALGVGWIRQPSGRGLEWLAHIWWDDDKYYNPALKSRLTISKDTSKNHVFLKIANVDTADTATYYCARITTYYYGMDYWGQGTSVTVSS
VL: DIVLSQSPATLSVTPGDSVSLFCRASQSIGNHLHWYQQESHASPRLLIKYASQSISGIPSRFSGSGSGTDFTLSINSVETEDFGMYFCQQSYNWPLTFGAGTKLELK
notes: mouse IgG, kappa light chain; also called clone #16; purified antibody 16
Take B3: the “loss of binding vs wild type” value in the assay with hiR1-FL-WT-T7 is at least 95%.

B4: antibody 3 (antibody, V domains shown)
VH: QVTLKESGPGILQPSQTLSLTCSFSGFSLTTFAMGIGWVRQPSGKGLEWLAHIWWDGEKYNNPVLKSRLTISKDTSKNQVFLRIANVDTPDTATYYCARISSIYYIIDNWGQGTSVTVSS
VL: B3 VL with S5T, D17H, F22S, G30S, H32N, Q38K, E39K, A42E, A51V
notes: mouse IgG, kappa light chain; also called clone #3; purified antibody 3
With B4, the “loss of binding vs wild type” value with hiR1-FL-WT-T7 is at least 95%.

B5: antibody 5 (antibody, V domains shown)
VH: QVTLKESGPGILQPSQTLSLTCSFSGFSLSTFGMGVGWIRQPSGKGLEWLAHIWWDDEKYYNSALKSRLTISKATSKNQAFLKIANVDTADTATYYCARISNYGSNYWYFNVWGTGTTVTVSS
VL: QVVLTQSPALMSASPGEKVTMTCSAGSSVSCMYWYQQKPGSSPRVLIYDTSNLASGVPARFTGSGSGTSYSLTISRMEAEDAASYYCQQWNSYPLTFGAGTKLELK
notes: mouse IgG, kappa light chain; also called clone #5; purified antibody 5
For the molecule B5, the “loss of binding vs wild type” value with hiR1-FL-WT-T7 and with hiR2-FL-S537E-T7 was at least 95% throughout.

B6: antibody 44 (antibody, V domains shown)
VH: B5 VH with G44E, E58D, S63P, A74D, A80I, A85T, D91E, A98S, S101G, N111D
VL: QIVLTQSPAVMSASPGEKVTMTCTASSSVYYMYWYQQTPGSSPRLLIYDTSNLASGVPVRFSGSGSGTSYSLTISRMEAEDAATYYCQQWNTYPLTFGAGTKLELK
notes: mouse IgG, kappa light chain; also called clone #44; purified antibody 44
As to B6, the “loss of binding vs wild type” value with hiR1-FL-WT-T7 is at least 95%; with hiR2-FL-S537E-T7 it was at least 60%.

B7: antibody 42 (antibody, V domains shown)
VH: B5 VH with F24L, M34R, S63P, A74D, A80V, K83R, S101Q, N111D
VL: LIVLTQSPAIMSASPGEKVTMTCGATSRISYMFWYQQKPGSSPRVLIYDTSNLASGVPVRFSGSGSGTSYSLTISRVEAEDVATYYCQQWNSYPLTFGAGTKLELK
notes: mouse IgG, kappa light chain; also called clone #42; purified antibody 42
For B7, the figures for the “loss of binding vs wild type” value in the assay with hiR1-FL-WT-T7 and with hiR2-FL-S537E-T7 were at least 95% and at least 60%, respectively.

B8: antibody 43 (antibody, V domains shown)
VH: B5 VH with T3A, P42S, H52N, E58D, S63P, A74D, T75A, S101G, N111D
VL: B7 VL with L1Q, K18R, G24S, T26N, F33Y, V45L, V77M, V82A, Y86N, N91S
notes: mouse IgG, kappa light chain; also called clone #43; purified antibody 43
In the case of B8, the “loss of binding vs wild type” value is at least 95% in the assay with hiR1-FL-WT-T7 and at least 60% with hiR2-FL-S537E-T7.

B9: antibody 22 (antibody, V domains shown)
VH: B5 VH with A80V
VL: B5 VL with C31Y, S84T
notes: mouse IgG, kappa light chain; also called clone #22; purified antibody 22
Take B9: the “loss of binding vs wild type” value is at least 95% with hiR1-FL-WT-T7 and at least 60% in the assay with hiR2-FL-S537E-T7.

B10: antibody 34 (antibody, V domains shown)
VH: QVTLKESGPGILQPSQTLSLTCSFSGFSLSTFSLGVGWIRQSSGKGLEWLAHIWWDDEKYYNPALKSRLTISKDTSKNQVFLKIANVDAADTATYYCARAYYSKSYYALDYWGQGTSVTVSS
VL: DIQMTQSPSSLSASLGERVSLTCRASQEISGYLSWLQQKPDGTIKRLIYAASTLDSGVPKRFSGSRSGSDYSLAISSLESEDFADYYCLQYANFPFTFGSGTKLEIK
notes: mouse IgG, kappa light chain; also called clone #34; purified antibody 34
Take B10: the “loss of binding vs wild type” value in the assay with hiR1-FL-WT-T7 and in the assay with hiR2-FL-S537E-T7 was at least 95% each time.
